Data as given in paper PMC2844151.

Target: T1, Mycobacterium tuberculosis cAMP receptor protein (Rv3676) (Mycobacterium tuberculosis), P9WMH3
T1 chain: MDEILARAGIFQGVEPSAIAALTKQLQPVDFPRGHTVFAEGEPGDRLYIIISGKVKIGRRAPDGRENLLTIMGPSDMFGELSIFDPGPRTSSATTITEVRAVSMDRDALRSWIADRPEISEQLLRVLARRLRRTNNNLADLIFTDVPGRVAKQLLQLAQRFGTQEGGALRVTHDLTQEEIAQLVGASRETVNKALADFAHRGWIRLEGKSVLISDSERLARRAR
Experiment: cross-linking
Details: remark: other sources report otherwise

B1: Mycobacterium tuberculosis cAMP receptor protein (Rv3676), P9WMH3 1-224 (natural protein)
chain: MDEILARAGIFQGVEPSAIAALTKQLQPVDFPRGHTVFAEGEPGDRLYIIISGKVKIGRRAPDGRENLLTIMGPSDMFGELSIFDPGPRTSSATTITEVRAVSMDRDALRSWIADRPEISEQLLRVLARRLRRTNNNLADLIFTDVPGRVAKQLLQLAQRFGTQEGGALRVTHDLTQEEIAQLVGASRETVNKALADFAHRGWIRLEGKSVLISDSERLARRAR
Work on B1 yielded a stoichiometry N of 2.
